Literature values, collected in patent publication US20180369330A1, “METHODS AND COMPOSITIONS USING INTEGRIN-BASED THERAPEUTICS” (La Jolla Institute for Allergy and Immunology, priority 2016, published 2018).

Experiments:
[1] = patients, clinical trials or clinical use
αVβ3 = molecular target: T1, αVβ3 (Homo sapiens, UniProt P05106+P06756); conditions: patients with glioblastoma
T1 construct: host or cells: patients with glioblastoma (cited trials)
T1 sequence (P06756 31-889 limits assumed): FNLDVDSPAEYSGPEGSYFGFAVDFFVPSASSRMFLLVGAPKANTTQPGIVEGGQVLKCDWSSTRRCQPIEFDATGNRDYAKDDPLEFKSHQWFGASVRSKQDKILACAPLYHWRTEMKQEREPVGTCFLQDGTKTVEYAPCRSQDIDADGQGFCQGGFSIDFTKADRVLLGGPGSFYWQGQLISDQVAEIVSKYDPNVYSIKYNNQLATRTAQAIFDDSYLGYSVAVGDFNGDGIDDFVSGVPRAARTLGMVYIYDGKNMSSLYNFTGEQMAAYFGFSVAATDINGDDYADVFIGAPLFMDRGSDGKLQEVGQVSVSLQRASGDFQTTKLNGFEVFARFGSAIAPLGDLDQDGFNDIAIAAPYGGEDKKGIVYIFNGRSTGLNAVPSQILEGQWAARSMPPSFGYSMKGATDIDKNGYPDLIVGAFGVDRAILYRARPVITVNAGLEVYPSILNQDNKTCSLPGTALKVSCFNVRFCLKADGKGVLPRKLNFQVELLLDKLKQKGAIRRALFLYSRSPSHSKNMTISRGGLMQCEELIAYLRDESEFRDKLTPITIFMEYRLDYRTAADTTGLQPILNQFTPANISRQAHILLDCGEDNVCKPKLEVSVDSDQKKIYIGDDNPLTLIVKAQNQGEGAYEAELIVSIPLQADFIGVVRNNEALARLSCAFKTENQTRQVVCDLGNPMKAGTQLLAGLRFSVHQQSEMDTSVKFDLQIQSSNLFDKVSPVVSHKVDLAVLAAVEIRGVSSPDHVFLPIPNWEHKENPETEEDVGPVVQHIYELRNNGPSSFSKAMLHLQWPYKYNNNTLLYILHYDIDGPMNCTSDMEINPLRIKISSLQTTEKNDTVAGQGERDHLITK
T1 sequence (P06756 891-1048 limits assumed): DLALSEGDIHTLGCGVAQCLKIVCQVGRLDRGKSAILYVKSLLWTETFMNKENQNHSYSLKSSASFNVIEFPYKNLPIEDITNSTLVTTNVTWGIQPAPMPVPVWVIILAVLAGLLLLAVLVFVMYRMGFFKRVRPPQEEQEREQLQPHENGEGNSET
T1 sequence (P05106 27-788): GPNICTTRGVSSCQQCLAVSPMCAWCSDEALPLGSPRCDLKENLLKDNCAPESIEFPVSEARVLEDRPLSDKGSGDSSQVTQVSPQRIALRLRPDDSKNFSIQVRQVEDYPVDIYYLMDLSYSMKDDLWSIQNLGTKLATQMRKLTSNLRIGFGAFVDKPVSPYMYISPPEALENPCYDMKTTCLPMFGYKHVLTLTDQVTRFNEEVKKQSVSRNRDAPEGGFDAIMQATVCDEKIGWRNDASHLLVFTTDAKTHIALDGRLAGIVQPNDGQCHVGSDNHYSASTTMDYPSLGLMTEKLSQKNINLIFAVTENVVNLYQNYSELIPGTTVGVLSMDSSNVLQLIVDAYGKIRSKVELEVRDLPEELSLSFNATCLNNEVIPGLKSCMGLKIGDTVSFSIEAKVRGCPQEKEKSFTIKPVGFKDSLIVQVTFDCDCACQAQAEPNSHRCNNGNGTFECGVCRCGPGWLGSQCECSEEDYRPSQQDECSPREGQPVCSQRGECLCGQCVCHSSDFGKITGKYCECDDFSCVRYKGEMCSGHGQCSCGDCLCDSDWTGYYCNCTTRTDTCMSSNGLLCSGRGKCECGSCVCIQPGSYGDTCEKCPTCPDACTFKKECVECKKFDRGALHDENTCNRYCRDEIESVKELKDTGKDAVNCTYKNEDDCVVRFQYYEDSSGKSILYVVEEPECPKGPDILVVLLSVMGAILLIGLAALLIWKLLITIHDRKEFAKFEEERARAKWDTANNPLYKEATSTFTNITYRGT

| efficacy in limiting tumor angiogenesis and progression (αVβ3) | Compound | progressive multifocal leukoencephalopathy [1] |
| --- | --- | --- |
|  | vedolizumab: antibody to a combinatorial epitope in α4β7 | has not been observed |
| has not shown efficacy | CC(C)[C@H]1C(=O)N[C@@H](CCCN=C(N)N)C(=O)NCC(=O)N[C@@H](CC(=O)O)C(=O)N[C@H](Cc2ccccc2)C(=O)N1C [Cilengitide] |  |
|  | Natalizumab: antibody targeting lymphocyte α4β1 and α4β7 integrins | rare but serious complication |
